Laboratory results reported in patent US20260151494A1.

Key:
[1] = target: apical domain of CD71 (Screen 3: 'cynomolgus apical domain of human CD71') (cynomolgus (as paragraph 454 words it; ambiguous)); experiment: primary ELISA
[2] = target: apical domain of CD71 (Screen 3: 'cynomolgus apical domain of human CD71') (cynomolgus (as paragraph 454 words it; ambiguous)); experiment: primary ELISA, RLU ratio to HSA

RLU [1] [RLU]	Apical domain:HSA [2]	Binder
4.94e+06	380	CD71-binding FN3 domain SEQ ID NO: 332 (designed binder) MSLPAPKNLVVSRVTEDSARLSWTAPDAAFDSFEIGYWEGPGGGEAIILVVPGSERSYDLTGLKPGTEYYVQIGGVKGGDWSTPLWATFTT
5.63e+06	558	CD71-binding FN3 domain SEQ ID NO: 235 (designed binder) MSLPAPKNLVVSRVTEDSARLSWTAPDAAFDSFEIVYAEPVRFGEAIVLTVPGSERSYDLTGLKPGTEYWVQIGGVKGGNWSAPLSAIFTT
6.24e+06	701	CD71-binding FN3 domain SEQ ID NO: 331 (designed binder) MSLPAPKNLVVSRVTEDSARLSWTAPDAAFDSFFIGYLEPQPPGEAIHLYVPGSERSYDLTGLKPGTEYNVTIQGVKVGFPSEPLIANFTT
6.2e+06	171	CD71-binding FN3 domain SEQ ID NO: 333 (designed binder) MSLPAPENLVVSRVTEDSARLSWTAPDAAFDSFFIGYLEPQPPGEAIALYVPGSERSYDLTGLKPGTEYNVTIQGVKGGFPSLPLVATFTT
7.51e+06	798	CD71-binding FN3 domain SEQ ID NO: 234 (designed binder) MSLPAPKNLVVSRVTEDSARLSWTAPDAAFDSFFIGYLEPQPPGEAIALYVPGSERSYDLTGLKPGTEYNVTIQGVKGGFPSEPLVAHFTT
5.29e+06	1030	CD71-binding FN3 domain SEQ ID NO: 297 (designed binder) MSLPAPKNLVVSRVTEDSARLSWTAPDAAFDSFEISYFENTWYGEAIVLTVPGSERSYDLTGLKPGTEYSVRIFGVKGGNFSFPLSAIFTT
5.3e+06	414	CD71-binding FN3 domain SEQ ID NO: 298 (designed binder) MSLPAPKNLVVSRVTEDSARLSWTAPDAAFDSFEIGYFENLYLGEAIVLTVPGSERSYDLTGLKPGTEYWVQIGGVKGDNWSAPLSAIFTT
4.53e+06	216	CD71-binding FN3 domain SEQ ID NO: 301 (designed binder) MSLPAPKNLVVSRVTEDSARLSWTTPDAAFDSFEIGYFENLYLGEAIVLTVPGSERSYDLTGLKPGTEYWVQIGGVKGGNWSAPLSAIFTT
4.4e+06	73	CD71-binding FN3 domain SEQ ID NO: 315 (designed binder) MSLPAPKNLVVSRVTEDSARLSWTAPDAAFDSFEIGYFENLYLGEAIVLTVPGSERSYDLTGLKPGTEYWVQIGGVKGGNWSAPLSAISTT
5.17e+06	835	CD71-binding FN3 domain SEQ ID NO: 313 (designed binder) MSLPAPKNLVVSRVTEDSARLSWTAPDAAFDSFEIAYFENDWAGEAIVLTIPGSERSYDLTGLKPGTEYWVQIGGVKGGNWSAPLSAIFTT
4.22e+06	95	CD71-binding FN3 domain SEQ ID NO: 323 (designed binder) MSLPAPKNLVVSRVTEDSARLSWTAPDAAFDSFEIGYFENLYLGEAIVLTVPGSERSYDLTGLKPGTEYWVQIGGVKGGNWSGPLSAIFTT
5.62e+06	452	CD71-binding FN3 domain SEQ ID NO: 309 (designed binder) MSLPAPENLVVSRVTEDSARLSWTAPDAAFDSFEIGYFENLYLGEAIVLTVPGSERSYDLTGLKPGTEYWVQIGGVKGGNWSAPLSAIFTT
5.32e+06	164	CD71-binding FN3 domain SEQ ID NO: 236 (designed binder) MSLPAPKNLVVSRVTEDSARLSWTEPDAAFDSFEIGYFENLYLGEAIVLTVPGSERSYDLTGLKPGTEYWVQIGGVKGGNWSAPLSAIFTT
5.31e+06	556	CD71-binding FN3 domain SEQ ID NO: 312 (designed binder) MSLPAPKNLVVSRVTEDSARLSWTAPDAAFDSFEIGYFENLYLGEAIVLTIPGSERSYDLTGLKPGTEYWVQIGGVKGGNWSAPLSAIFTT
5.5e+06	446	CD71-binding FN3 domain SEQ ID NO: 304 (designed binder) MSLPAPKNLVVSRVTEDSARLSWTAPDAAFDSFEIGYFENLYLGEAIVLTVPGSERSYDLTGLKPGTEYVVFIGGVKGGVWSVPLSAIFTT
5.57e+06	406	CD71-binding FN3 domain SEQ ID NO: 300 (designed binder) MSLPAPKNLVVSRVTEDSARLSWTAPDAAFDSFEIGYFEATPNGEAIVLTVPGSERSYDLTGLKPGTEYKVFIGGVKGGRWSKPLSAIFTT
5.35e+06	614	CD71-binding FN3 domain SEQ ID NO: 299 (designed binder) MSLPAPKNLVVSRVTEDSARLSWTAPDAAFDSFEIAYFENLYLGEAIVLTVPGSERSYDLTGLKPGTEYWVQIGGVKGGNWSAPLSAIFTT
3.7e+06	42	CD71-binding FN3 domain SEQ ID NO: 328 (designed binder) MSLPAPKNLVVSRVTEDSARLSWTAPDAAFDSFEIGYFGNLYLGEAIVLTVPGSERSYDLTGLKPGTEYWVQIGGVKGGNWSAPLSAIFTT

RLU [1] [RLU]	Apical domain:HSA [2]	Binder
4.64e+06	128	CD71-binding FN3 domain SEQ ID NO: 329 (designed binder) MSLPAPKNLVVSRVTEDSARLSWTAPDAAFDSFDIGYFEATYYGEAIVLTVPGSERSYDLTGLKPGTEYRVWIGGVKGGYYSNPLSAIFTT
5.36e+06	72	CD71-binding FN3 domain SEQ ID NO: 307 (designed binder) MSLPAPKNLVVSRVTEDSARLSWTAPDAAFNSFEIGYFENLYLGEAIVLTVPGSERSYDLTGLKPGTEYWVQIGGVKGGTFSAPLSAIFTT
4.31e+06	92	CD71-binding FN3 domain SEQ ID NO: 330 (designed binder) MSLPAPKNLVVSRVTEDSARLSWTAPDAAFDSFEIGYFENLYLGEAIVLTVPGSERSYDLTGLKPGTEYWVQIGGVKGGNWSAPLSAIVTT
4.44e+06	442	CD71-binding FN3 domain SEQ ID NO: 316 (designed binder) MSLPAPKNLVISRVTEDSARLSWTAPDAAFDSFEIGYFENLYLGEAIVLTVPGSERSYDLTGLKPGTEYWVQIGGVKGGNWSAPLSAIFTT
5.69e+06	495	CD71-binding FN3 domain SEQ ID NO: 305 (designed binder) MSLPAPKNLVVSRVTEDSARLSWTAPDAAFDSFEIAYFEQTYTGEAIVLTVPGSERSYDLTGLKPGTEYWVQIGGVKGGNWSAPLSAIFTT
4.99e+06	252	CD71-binding FN3 domain SEQ ID NO: 322 (designed binder) MSLPAPKNLVVSRVTEDSARLSWTAPDAAFDSFEIGYFEITRYGEAIILFVPGSERSYDLTGLKPGTEYWVQIGGVKGGNWSAPLSAIFTT
4.24e+06	227	CD71-binding FN3 domain SEQ ID NO: 327 (designed binder) MSLPAPKNLVVSRVTEDSARLSWTAPDAAFDSFEIGYWENAYKGEAIVLTVPGSERSYDLTGLKPGTEYWVQIGGVKGGNWSAPLSAIFTT
4.37e+06	205	CD71-binding FN3 domain SEQ ID NO: 325 (designed binder) MSLPAPKNLVVSRVTEDSARLSWTAPDAAFDSFEIGYFENLYLGEAIVLTVPGSERSYDLTGLKPGTEYWVQIGGVKGGNWSAPLSEIFTT
4.83e+06	168	CD71-binding FN3 domain SEQ ID NO: 310 (designed binder) MSLPAPKNLVVSRVTEDSARLSWTAPDAAFDSFEIDYGEYSQAGEAIGLLVPGSERSYDLTGLKPGTEYAVWIGGVKGGFFSTPLEADFTT
5.25e+06	427	CD71-binding FN3 domain SEQ ID NO: 314 (designed binder) MGSLPAPKNLVVSRVTEDSARLSWTAPDAAFDSFEIGYFENLYLGEAIVLTVPGSERSYDLTGLKPGTEYWVQIGGVKGGNWSAPLSAIFTT
4.74e+06	320	CD71-binding FN3 domain SEQ ID NO: 306 (designed binder) MSLPAPKNLVVSRVTEDSARLSWTAPDAAFDSFEIGHFENLYLGEAIVLTVPGSERSYDLTGLKPGIEYWVQIGGVKGGVWSVSLSAIFTT
5.26e+06	188	CD71-binding FN3 domain SEQ ID NO: 308 (designed binder) MSLPAPKNLVVSRVTEDSARMSWTTPDAAFDSFEIGYFENLYLGEAIVLTVPGSERSYDLTGLKPGTEYWVQIGGVKGGNWSAPLSAIFTT
4.92e+06	462	CD71-binding FN3 domain SEQ ID NO: 324 (designed binder) MSLPAPKNLVVSRITEDSARLSWTAPDAAFDSFEIGYFENLYLGEAIVLTVPGSERSYDLTGLKPGTEYWVQIGGVKGGNWSAPLSAISTT
4.66e+06	260	CD71-binding FN3 domain SEQ ID NO: 311 (designed binder) MSLPAPKNLVVSRVTEDSARLSWTAPDAAFDSFEIGYWENAYKGEAIVLTVPGSERSYDLTGLKPGTEYVVFIGGVKGGSWSNPLSAIFTT
3.99e+06	290	CD71-binding FN3 domain SEQ ID NO: 320 (designed binder) MSLPVPKNLVVSRVTEDSARLSWTAPDAAFDSFEIGYWENAYKGEAIVLTVPGSERSYDLTGLKPGTEYWVQIGGVKGGNWSAPLSAIFTT
4.57e+06	187	CD71-binding FN3 domain SEQ ID NO: 319 (designed binder) MSLPAPKNLVVSRVTEDSARLSWTAPGAAFDSFEIGYFENLYLGEAIVLTVPGSERSYDLTGLKPGTEYWVQIGGVKGGVWSVPLSAIFTT
4.07e+06	215	CD71-binding FN3 domain SEQ ID NO: 326 (designed binder) MSLPAPKNLVVSRVTEDSARLSWTAPDAAFDSFEIGYWENAYKGEAIVLTVPGSERSYDLTGLKPGTEYWVQIGGVKGGVWSTPLSAIFTT
5.6e+06	636	CD71-binding FN3 domain SEQ ID NO: 303 (designed binder) MSLPAPKNLVVSRVTEDSARLSWTAPDAAFDSFWIEYWEGWKSGEAIVLTVPGSERSYDLTGLKPGTEYRVHIWGVKGGIVSWPLSAIFTT
